# Test results published in paper PMC3954793, “SHP-2 Binds to Caveolin-1 and Regulates Src Activity via Competitive Inhibition of CSK in Response to H2O2 in Astrocytes” (PLoS ONE, 2014).
# Ends that are not written are not given here.
# B1: 1–50 mer caveolin-1 peptide (peptide, UniProt Q03135 1-50, looked up)
# peptide: MSGGKYVDSEGHLYTVPIREQGNIYKPNNKAMADELSEKQVYDAHTKEID
# modifications: not fully specified
# notes: caveolin-1 residues 1-50, fifty-amino acid-long synthetic peptide; Conjugated to carboxyl beads with EDC; also called caveolin-1 peptide (1–50); p-caveolin-1 peptide; source: synthetic peptide (PEPTRON)
# Assays:
# [1] = target: T1, recombinant SHP-2 protein ( (human SHP-2 cloned for the …, UniProt Q06124 1-593)); test: bead-based flow cytometric binding assay; caveolin-1 (1–50) peptide conjugated to carboxyl beads with EDC; incubated with recombinant CSK or SHP-2 protein (1–10 µg) for 1 h at RT; detected with anti-CSK or anti-SHP-2 and fluorescent secondary antibody; conditions: both partners purified
# T1 construct: SHP-2 (PTPN11); the in-house construct holds the protein coding region of human SHP-2 in pGEX-6P-1
# T1 sequence (looked up): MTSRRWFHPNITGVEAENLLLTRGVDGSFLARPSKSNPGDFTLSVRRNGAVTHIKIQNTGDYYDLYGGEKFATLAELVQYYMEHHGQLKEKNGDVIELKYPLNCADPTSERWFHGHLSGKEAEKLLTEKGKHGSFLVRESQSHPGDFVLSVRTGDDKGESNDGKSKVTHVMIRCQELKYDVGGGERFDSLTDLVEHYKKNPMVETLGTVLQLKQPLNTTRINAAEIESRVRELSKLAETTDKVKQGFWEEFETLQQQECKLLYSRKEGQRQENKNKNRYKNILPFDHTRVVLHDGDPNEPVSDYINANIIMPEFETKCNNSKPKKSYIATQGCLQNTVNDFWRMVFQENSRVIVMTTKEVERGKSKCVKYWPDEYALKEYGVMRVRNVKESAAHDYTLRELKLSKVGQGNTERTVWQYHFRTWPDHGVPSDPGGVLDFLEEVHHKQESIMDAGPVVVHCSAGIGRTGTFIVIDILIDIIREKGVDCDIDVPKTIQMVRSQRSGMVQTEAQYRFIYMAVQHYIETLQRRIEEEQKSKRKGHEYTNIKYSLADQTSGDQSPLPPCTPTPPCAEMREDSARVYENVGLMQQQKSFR
# recombinant CSK protein = target: T2, recombinant CSK protein ( (human CSK cloned for the …, UniProt P41240 1-450)); test: as above; conditions: both partners purified
# T2 construct: CSK; the in-house construct holds the protein coding region of human CSK in pGEX-6P-1
# T2 sequence (P41240 whole entry): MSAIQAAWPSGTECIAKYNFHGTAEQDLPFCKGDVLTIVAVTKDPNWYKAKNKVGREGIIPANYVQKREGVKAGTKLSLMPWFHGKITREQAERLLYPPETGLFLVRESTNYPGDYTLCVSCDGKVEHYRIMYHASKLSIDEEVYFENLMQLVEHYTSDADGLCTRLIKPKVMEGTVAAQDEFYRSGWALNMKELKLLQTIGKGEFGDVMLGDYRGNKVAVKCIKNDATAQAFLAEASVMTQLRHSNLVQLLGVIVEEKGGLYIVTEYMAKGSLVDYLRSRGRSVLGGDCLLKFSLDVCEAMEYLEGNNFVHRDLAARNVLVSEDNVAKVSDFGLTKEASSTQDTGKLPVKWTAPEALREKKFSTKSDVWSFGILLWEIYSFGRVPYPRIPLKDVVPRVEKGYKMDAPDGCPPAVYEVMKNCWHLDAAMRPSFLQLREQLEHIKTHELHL
binder,measurement,setting,value
B1,binding result,[1],binds
same,binding result,recombinant CSK protein,binds
